Assay results published in publication PMC9978035, “Human uridine 5′-monophosphate synthase stores metabolic potential in inactive biomolecular condensates” (The Journal of Biological Chemistry, 2023).
Changes are numbered by the printed parent chain. Numbers in names are those of the source.

Tests used:
[1] = target: the molecule itself; assay: SEC; 20 mM Tris pH 7.5, 100 mM NaCl; SEPAX SRT-10-SEC-300 or Superdex 200 columns; MW standards run under the same conditions; also run with 500 μM orotate
[2] = target: the molecule itself; assay: AUC; sedimentation at 38,000 rpm, absorbance at 280 nm, 1 mg/ml (WT) or 1.5 mg/ml (mutants) and 1:5 dilutions, SEDFIT continuous sedimentation profiles
[3] = target: the molecule itself; assay: cross-linking; SEC fractions in 50.0 mM Na3PO4 pH 8.0, 100.0 mM NaCl, 0.004% glutaraldehyde, quenched at time points up to 2 h, SDS-PAGE

B1: Human uridine 5′-monophosphate synthase (HsUMPS), wildtype (enzyme, UniProt P11172 1-480, looked up)
chain: MAVARAALGPLVTGLYDVQAFKFGDFVLKSGLSSPIYIDLRGIVSRPRLLSQVADILFQTAQNAGISFDTVCGVPYTALPLATVICSTNQIPMLIRRKETKDYGTKRLVEGTINPGETCLIIEDVVTSGSSVLETVEVLQKEGLKVTDAIVLLDREQGGKDKLQAHGIRLHSVCTLSKMLEILEQQKKVDAETVGRVKRFIQENVFVAANHNGSPLSIKEAPKELSFGARAELPRIHPVASKLLRLMQKKETNLCLSADVSLARELLQLADALGPSICMLKTHVDILNDFTLDVMKELITLAKCHEFLIFEDRKFADIGNTVKKQYEGGIFKIASWADLVNAHVVPGSGVVKGLQEVGLPLHRGCLLIAEMSSTGSLATGDYTRAAVRMAEEHSEFVVGFISGSRVSMKPEFLHLTPGVQLEAGGDNLGQQYNSPQEVIGKRGSDIIIVGRGIISAADRLEAAEMYRKAAWEAYLSRLGV
notes: Human UMP synthase (UMPS), bifunctional enzyme with OPRT and OMPDC domains; codon-optimized human UMPS in pDB-His-MBP between NdeI and XhoI; expected protomer MW 52 kDa; both domains are present and the expected protomer mass of 52 kDa fits the whole protein (surmise); also called human UMPS; UMP synthase; source: E. coli BL21(DE3), purified (amylose resin, on-column TEV cleavage, Ni-NTA, SEC or …)
For B1, the “stoichiometry N” value [1] was 2.

B2: HsUMPS S87T/Q90E (OPRT dimerization-deficient mutant) (enzyme, human, UniProt P11172 1-480, looked up)
chain: B1 chain with S87T, Q90E
notes: Human UMP synthase (UMPS) with the double mutation S87T/Q90E at the native OPRT dimer interface; same construct as the wildtype; as m1 with the mutations; also called oligomerization-deficient mutant; source: E. coli BL21(DE3), purified in a similar fashion as WT; not shown: His6, N-terminal, cleaved; MBP, N-terminal, cleaved
In the case of B2, the “stoichiometry N” value [2] is reported as 2.

B3: HsUMPS E123Q (OPRT active site mutant) (enzyme, human, UniProt P11172 1-480, looked up)
chain: B1 chain with E123Q
notes: Human UMP synthase (UMPS) with the OPRT active site mutation E123Q; same construct as the wildtype; as m1 with the mutation; also called E123Q OPRT mutant; source: E. coli BL21(DE3), purified in a similar fashion as WT; not shown: His6, N-terminal, cleaved; MBP, N-terminal, cleaved
For B3, the “stoichiometry N” value [3] was 2.

B4: HsUMPS D312N (OMPDC active site mutant) (enzyme, human, UniProt P11172 1-480, looked up)
chain: B1 chain with D312N
notes: Human UMP synthase (UMPS) with the OMPDC active site mutation D312N; same construct as the wildtype; as m1 with the mutation; also called OMPDC mutant; source: E. coli BL21(DE3), purified in a similar fashion as WT; not shown: His6, N-terminal, cleaved; MBP, N-terminal, cleaved
B4: binds [1].
